Experimental data: patent US7847064B2, “Methods and compositions for regulating gene expression in plant cells” (Donald Danforth Plant Science Center, priority 2004, dated 2010)

B1: RF2a-ΔP: RF2a mutant, proline-rich domain removed, SEQ ID NO:68 (protein)
chain: MGHRRAHSEILSLPEDLDLCAAGGGDGPSLSDENDEELFSMFLDVEKLNSTCGASSEAEAESSSAAAHGARPKHQHSLSMDESMSIAEELVGASPGTEGMSSAEAKKAVSAVKLAELALVDPKRAKRIWANRQSAARSKERKMRYIAELERKVQTLQTEATTLSAQLALLQRDTSGLTTENSELKLRLQTMEQQVHLQDALNDTLKSEVQRLKVATGQMANGGGMMMNFGGMPHQFGGNQQMFQNNQAMQSMLAAHQLQQLQLHPQAQQQQVLHPQHQQQQPLHPLQAQQLQQAARDLKMKSPMGGQSQWGDGKSGSSGN
modifications: This sequence was artificially derived and/or created by the inventors.
B2: RF2a-ΔPΔA: RF2a mutant, proline-rich and acidic domains removed, SEQ ID NO:70 (protein)
chain: MSSSAAAHGARPKHQHSLSMDESMSIKAEELVGASPGTEGMSSAEAKKAVSAVKLAELALVDPKRAKRIWANRQSAARSKERKMRYIAELERKVQTLQTEATTLSAQLALLQRDTSGLTTENSELKLRLQTMEQQVHLQDALNDTLKSEVQRLKVATGQMANGGGMMMNFGGMPHQFGGNQQMFQNNQAMQSMLAAHQLQQLQLHPQAQQQQVLHPQHQQQQPLHPLQAQQLQQAARDLKMKSPMGGQSQWGDGKSGSSGN
modifications: This sequence was artificially derived and/or created by the inventors.
B3: RF2a-3Δ: RF2a mutant, glutamine-rich, proline-rich and acidic domains removed, SEQ ID NO:72 (protein)
chain: MSSSAAAHGARPKHQHSLSMDESMSIKAEELVGASPGTEGMSSAEAKKAVSAVKLAELALVDPKRAKRIWANRQSAARSKERKMRYIAELERKVQTLQTEATTLSAQLALLQRDTSGLTTENSELKLRLQTMEQQVHLQDALNDTLKSEVQRLKVATGQMANGGGMMMNFGGMPHQ
modifications: This sequence was artificially derived and/or created by the inventors.
B4: RF2a-ΔQ: RF2a mutant, glutamine-rich domain removed, SEQ ID NO:69 (protein)
chain: MNREKSPIPGDGGDGLPPQATRRAGPPAAAAAAEYDISRMPDFPTRNPGHRRAHSEILSLPEDLDLCAAGGGDGPSLSDENDEELFSMFLDVEKLNSTCGASSEAEAESSSAAAHGARPKHQHSLSMDESMSIKAEELVGASPGTEGMSSAEAKKAVSAVKLAELALVDPKRAKRIWANRQSAARSKERKMRYIAELERKVQTLQTEATTLSAQLALLQRDTSGLTTENSELKLRLQTMEQQVHLQDALNDTLKSEVQRLKVATGQMANGGGMMMNFGGMPHQ
modifications: This sequence was artificially derived and/or created by the inventors.
B5: RF2a-ΔPΔQ: RF2a mutant, proline- and glutamine-rich domains removed, SEQ ID NO:71 (protein)
chain: MGHRRAHSEILSLPEDLDLCAAGGGDGPSLSDENDEELFSMFLDVEKLNSTCGASSEAEAESSSAAAHGARPKHQHSLSMDESMSIKAEELVGASPGTEGMSSAEAKKAVSAVKLAELALVDPKRAKRIWANRQSAARSKERKMRYIAELERKVQTLQTEATTLSAQLALLQRDTSGLTTENSELKLRLQTMEQQVHLQDALNDTLKSEVQRLKVATGQMANGGGMMMNFGGMPHQ
modifications: This sequence was artificially derived and/or created by the inventors.

How the values were obtained:
[1] = tested on: Box IIm1 element; experiment: Electrophoretic mobility shift assay; assay type: binding; details: 100 ng purified protein, 32P-labeled Box IIm1 DNA probe
Description: The purified mutant proteins were then analyzed by SDS-PAGE to confirm that each protein was its expected size (FIG. 16(B)). To confirm that each of the mutant proteins bind to the DNA target, i.e., the Box II element and/or its operational derivatives, gel mobility shift assays were carried out with the purified recombinant proteins (FIG. 16(C)). The electrophoretic mobility shift assays were carried out essentially as described in Yin and Beachy (1995). 100 ng of proteins purified from the transformed E. coli were incubated with ^32P-labeled Box IIm1 DNA probe followed by electrophoresis in a 5% acrylamide gel (Yin et al., 1997) (FIG. 16(C)).

[2] = tested on: pBII-48Ca::GUS; experiment: Transactivation of pBII-48Ca::GUS by RF2a and RF2a mutants in BY-2 protoplasts; assay type: cell-based, tobacco; details: co-transfected with pBII-48Ca::GUS, 24 hours after electroporation, normalized with GFP
Description: The relative activity of RF2a and the RF2a mutants (described in Example 8) was then measured. First, a chimeric promoter was developed with a single copy of the Box II element fused to the 5′ end of a minimal CaMV 35S promoter comprising nucleotides −48 to +8 (SEQ ID NO:66). The chimeric promoter was ligated to the uidA coding sequence to create the reporter pBII-48Ca::GUS.
To analyze the function of the several domains of RF2a, effectors were created by inserting coding sequences of RF2a or the mutants of RF2a (described in Example 8) downstream of the enhanced CaMV 35S promoter in the pMON999 vector (a gift from Monsanto Company, St. Louis, Mo.). The resultant constructs, p35S::RF2a, p35S::RF2a-ΔP, p35S::RF2a-ΔQ, p35S::RF2a-ΔPΔA, p35S::RF2a-ΔPΔQ and p35S::RF2a-3Δ, were co-transfected into BY-2 protoplasts with pBII-48Ca::GUS (FIG. 17(A)). Plasmid pCat-GFP, in which the GFP gene was driven by CaMV 35S promoter, was co-introduced to serve as an internal control. The following describes, in greater detail, the construction of these vectors and the methods employed in transfecting the same into BY-2 protoplasts.
Plasmids for protoplast transfection—The coding sequences for mutants of RF2a were released from pET28a-derived plasmids and cloned into the plant expression vector pMON999 (a gift from Monsanto Company, St. Louis, Mo.) to place each gene downstream of an enhanced CaMV 35S promoter, followed by a nopaline synthase terminator sequence. The resulting effector constructs were named p35S::RF2a, p35S::RF2a-ΔP, p35S::RF2a-ΔQ, p35S::RF2a-ΔPΔA, p35S::RF2a-ΔPΔQ and p35S::RF2a-3Δ. The reporter gene construct, pBII-48Ca::GUS, was built using PCR to introduce the Box II element into a minimal CaMV 35S promoter comprising nucleotides −48 to +8 with primers BII-48Ca 5′ (SEQ ID NO:53) (which contained the Box II element) and GUS 3′ (SEQ ID NO:36) using a p35S:GUS plasmid as template. The PCR product was restricted with HindIII and NcoI, and the resulting fragment was inserted into p35S::GUS to replace the original 35S promoter.
Transfection of tobacco BY-2 protoplasts—The protoplasts were isolated from tobacco cell line BY-2 as described by Watanabe et al. (1987). Approximately one million protoplasts were transfected by electroporation with 20 μg of effector construct DNA, 15 μg of herring sperm DNA, 2.5 μg of reporter gene construct DNA, and 15 μg of pCat-GFP DNA. In samples with reporter gene alone, the total amount of DNA was adjusted by adding 20 μg of herring sperm carrier DNA. The electroporation parameters used were 300 V and 250 microfarads with the Bio-Rad electroporation system (Bio-Rad Laboratories, Hercules, Calif.). Protoplast samples were cultured in Murashige and Skoog medium with 0.4 M mannitol, pH 5.8, at 28° C. The protoplasts were collected 24 hours after electroporation.

[3] = tested on: Nicotiana tabacum cv. Xanthi NN; experiment: Phenotype of transgenic tobacco plants overexpressing RF2a or RF2a mutants; assay type: in vivo; details: for phenotype of transgenic tobacco plants: CaMV 35S promoter driven, T1 generation, greenhouse; for cross-sections of the stem of transgenic plants: two-month old tobacco, toluidine blue O
Source text: (Yin et al., 1997; Petruccelli et al., 2001). […] Fifteen or more independent transgenic tobacco lines were developed with the constructs described below through Agrobacterium-mediated transformation.
Plasmids for Agrobacterium-mediated transformation—The fusion genes described above relating to the plant expression constructs comprising RF2a deletion mutants were released from pMON999-derived plasmids using NotI (blunted) and cloned into the binary vector pGA-E::GUS (Petruccelli et al., 2001) using the blunt HindIII site (downstream of a CaMV 35S promoter sequence). The final plasmids were named pGA-E::GUS/P-35S::ΔP, pGA-E::GUS/P-35S::ΔQ, pGA-E::GUS/P-35S::ΔPΔA and pGA-E::GUS/P-35S::ΔPΔQ. A plasmid encoding full-length RF2a, p35S::RF2a, was also constructed using the methods described herein.
Tobacco transformation—the plasmids described above were introduced into Agrobacterium tumefaciens strain LBA4404 and used for tobacco transformation. Leaf discs from Nicotiana tabacum cv. Xanthi NN were transformed with the various plasmids following the protocol of Horsch et al. (1988). At least 15 independent transgenic lines were produced with each gene construct. Transgenic plants were self-fertilized, and T1 seeds were collected. The T1 seeds were germinated on Murashige and Skoog medium (Murashige and Skoog, 1962) with kanamycin (100 mg/L) selection, and Kan^r seedlings were grown in a greenhouse for observation.
The phenotype caused by 35S::RF2a-ΔPΔA was similar to, but less severe than, the phenotype caused by 35S::RF2a-3Δ. […] (FIG. 19(C)).

Molecule | binding in gel mobility shift assay [1] | activation function (relative GUS activity) [2] | phenotype of transgenic tobacco plants [3] | phenotype of transgenic tobacco plants ([3]; listed as 35S::RF2a-ΔPΔA) | independent transgenic lines with stunting, curved leaves and delayed flowering ([3]; T1 generation tobacco) | internodal elongation of transgenic plants ([3]; transgenic tobacco) | cross-sections of the stem of transgenic plants [3]
B1 | bind to the Box IIm1 element | greater than that of full-length RF2a | did not exhibit abnormal phenotypes | – | – | – | –
B2 | bind to the Box IIm1 element | dropped to near basal level | severe stunting phenotype | mild to severe stunting with curved leaves and substantial delay in flowering times | 11 of 15 | strongly repressed | xylem of stunted plants was not uniformly lignified and that phloem development was altered
B3 | bind to the Box IIm1 element | dropped to near basal level | severe stunting phenotype | – | – | – | xylem of stunted plants was not uniformly lignified and that phloem development was altered
B4 | bind to the Box IIm1 element | greater than that of full-length RF2a | did not exhibit abnormal phenotypes | – | – | – | –
B5 | bind to the Box IIm1 element | greater than that of full-length RF2a | did not exhibit abnormal phenotypes | – | – | – | –
